Each block holds one molecule with its values, some of them ahead of it.
How the values were obtained:
C4b (Complement Tech) [1] = molecular target: C4b (Complement Tech) (UniProt P0C0L4); assay: SPR (Biacore 8K), His-tagged fusion protein captured by anti-His on CM5, C4b analyte 62.5-2000 nM, steady state affinity
C4b (Complement Tech) [2] = molecular target: C4b (Complement Tech) (UniProt P0C0L4); assay: BLI (GatorPrime), ratio of KD to that of rhCR1 for C4b
C4b (Complement Tech) [3] = molecular target: C4b (Complement Tech) (UniProt P0C0L4); assay: BLI (GatorPrime), His-tagged protein on Ni-NTA probe, ligand in 7-point dilution series
C4b (Complement Tech) [4] = molecular target: C4b (Complement Tech) (UniProt P0C0L4); assay: SPR (Biacore 8K), His-tagged receptor captured by anti-His on CM5, C4b analyte 31.25-2000 nM, steady state affinity
iC3b (Complement Tech) [5] = molecular target: T1, iC3b (Complement Tech) (UniProt P01024 23-667; P01024 749-1303; P01024 1321-1663, limits assumed); assay: BLI (GatorPrime), His-tagged protein on Ni-NTA probe, ligand in 7-point dilution series
T1 construct: iC3b is a multi-chain fragment of C3
T1 sequence (P01024 23-667 limits assumed, chain 1 of 3): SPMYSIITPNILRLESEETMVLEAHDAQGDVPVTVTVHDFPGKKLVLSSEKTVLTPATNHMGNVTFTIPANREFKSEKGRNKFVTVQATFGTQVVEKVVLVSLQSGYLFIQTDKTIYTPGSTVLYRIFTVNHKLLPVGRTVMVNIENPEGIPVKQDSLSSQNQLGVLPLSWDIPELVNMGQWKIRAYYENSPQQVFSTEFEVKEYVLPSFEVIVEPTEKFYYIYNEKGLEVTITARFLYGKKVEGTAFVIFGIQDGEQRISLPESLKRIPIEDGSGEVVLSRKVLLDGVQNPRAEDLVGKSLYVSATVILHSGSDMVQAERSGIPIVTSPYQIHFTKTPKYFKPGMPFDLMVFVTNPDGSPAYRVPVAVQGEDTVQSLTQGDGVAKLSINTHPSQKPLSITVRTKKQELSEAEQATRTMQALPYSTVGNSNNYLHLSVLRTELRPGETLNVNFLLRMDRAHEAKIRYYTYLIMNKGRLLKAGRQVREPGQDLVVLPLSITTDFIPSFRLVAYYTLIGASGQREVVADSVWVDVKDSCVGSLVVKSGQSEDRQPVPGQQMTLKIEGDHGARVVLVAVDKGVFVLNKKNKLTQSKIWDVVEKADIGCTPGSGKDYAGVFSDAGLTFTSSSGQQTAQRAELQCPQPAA
T1 sequence (P01024 749-1303 limits assumed, chain 2 of 3): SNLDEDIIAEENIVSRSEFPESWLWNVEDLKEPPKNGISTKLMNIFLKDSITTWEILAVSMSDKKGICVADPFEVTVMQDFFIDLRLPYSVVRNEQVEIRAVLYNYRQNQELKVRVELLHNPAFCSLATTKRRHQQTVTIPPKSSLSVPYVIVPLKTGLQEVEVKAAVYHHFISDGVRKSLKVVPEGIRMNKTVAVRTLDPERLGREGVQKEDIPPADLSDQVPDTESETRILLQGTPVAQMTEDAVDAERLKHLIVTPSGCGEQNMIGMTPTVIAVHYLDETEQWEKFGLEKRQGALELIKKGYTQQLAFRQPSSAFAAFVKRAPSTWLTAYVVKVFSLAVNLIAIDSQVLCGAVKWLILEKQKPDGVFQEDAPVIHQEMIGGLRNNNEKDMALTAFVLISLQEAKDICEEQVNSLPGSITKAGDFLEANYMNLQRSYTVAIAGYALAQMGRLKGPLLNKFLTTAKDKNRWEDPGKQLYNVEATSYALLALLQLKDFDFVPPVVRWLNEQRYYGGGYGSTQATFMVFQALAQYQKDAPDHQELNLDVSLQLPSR
T1 sequence (P01024 1321-1663 limits assumed, chain 3 of 3): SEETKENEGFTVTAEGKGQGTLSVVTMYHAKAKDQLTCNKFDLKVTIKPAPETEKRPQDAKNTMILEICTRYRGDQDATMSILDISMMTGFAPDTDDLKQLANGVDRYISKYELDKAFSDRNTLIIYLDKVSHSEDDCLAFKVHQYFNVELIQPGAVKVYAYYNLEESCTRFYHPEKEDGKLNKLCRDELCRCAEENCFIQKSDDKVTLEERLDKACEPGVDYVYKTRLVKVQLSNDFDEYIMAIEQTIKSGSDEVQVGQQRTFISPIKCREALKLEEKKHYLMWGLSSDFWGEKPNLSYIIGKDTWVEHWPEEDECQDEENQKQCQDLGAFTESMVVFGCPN
Procedure: The binding kinetics of CR2-CR1 fusion proteins, human CR1, and human CR2 to their respective ligands were determined using biolayer interferometry (BLI) with a GatorPrime instrument (Gator Bio). Recombinant His-tagged human CR1 (R&D Systems), human CR2 (R&D Systems), or CR2-CR1 fusion proteins (GenScript) were immobilized onto Ni-NTA probes, and the response signals from the protein-loaded probes binding to C3d, iC3b, C3b, or C4b (Complement Tech) in a 7-point dilution series were measured for a 300 second association step, followed by a 300 second dissociation step in assay buffer. To reduce assay background/noise due to non-specific complement protein binding, a double reference was applied using a 0 nM ligand condition (Sample or Reference Probe Blank) and a series of Ni-NTA probes not loaded with protein (Reference Probe) according to the following equation: Sample Response=(Sample Signal−Reference Probe Signal)−(Sample Blank Signal−Reference Probe Blank Signal). The binding affinity constant, KD, and association/dissociation rate constants, kₒₙ/koff, for all binding interactions were calculated using the GatorOne software (Gator Bio).

iC3b (Complement Tech) [6] = molecular target: T1, iC3b (Complement Tech); assay: SPR (Biacore 8K), His-tagged receptor captured by anti-His on CM5, iC3b analyte 19.5-1250 nM, steady state affinity
Procedure: The binding of recombinant human CR1, recombinant human CR2, and recombinant CR2CR1 #1 (SEQ ID NO: 22), and recombinant CR2CR1 #7 (SEQ ID NO: 12) protein to their respective ligands C3b, C4b, iC3b, and/or C3d was analyzed using a Biacore 8K SPR system (Cytiva). Histidine-tagged complement receptors and fusion proteins were immobilized onto Series S Sensor Chip CM5 using a His Antibody Capture Kit, with capture levels of 60-470 RU. C3b, C4b, iC3b, and C3d were prepared in 1×HBS-EP buffer (10 mM HEPES, 150 mM NaCl, 3 mM EDTA, and 0.05% v/v Surfactant P20), pH 7.4, at concentrations ranging from 3-16000 nM, and the analytes were injected at a flow rate of 30 μL/min. Binding at 25° C. was monitored for 150 seconds, followed by a dissociation phase of 300 seconds. Chip sensors were regenerated for 60 seconds with 10 mM glycine-HCl buffer, pH 1.5. The data were processed and analyzed with Biacore Insight Evaluation Software; a 1:1 binding model (C3b analyte) or steady state affinity (C4b, iC3b, C3d analytes) was used to calculate the apparent KD value and other kinetic parameters.

Sequence of C4b (Complement Tech) (P0C0L4 20-1744): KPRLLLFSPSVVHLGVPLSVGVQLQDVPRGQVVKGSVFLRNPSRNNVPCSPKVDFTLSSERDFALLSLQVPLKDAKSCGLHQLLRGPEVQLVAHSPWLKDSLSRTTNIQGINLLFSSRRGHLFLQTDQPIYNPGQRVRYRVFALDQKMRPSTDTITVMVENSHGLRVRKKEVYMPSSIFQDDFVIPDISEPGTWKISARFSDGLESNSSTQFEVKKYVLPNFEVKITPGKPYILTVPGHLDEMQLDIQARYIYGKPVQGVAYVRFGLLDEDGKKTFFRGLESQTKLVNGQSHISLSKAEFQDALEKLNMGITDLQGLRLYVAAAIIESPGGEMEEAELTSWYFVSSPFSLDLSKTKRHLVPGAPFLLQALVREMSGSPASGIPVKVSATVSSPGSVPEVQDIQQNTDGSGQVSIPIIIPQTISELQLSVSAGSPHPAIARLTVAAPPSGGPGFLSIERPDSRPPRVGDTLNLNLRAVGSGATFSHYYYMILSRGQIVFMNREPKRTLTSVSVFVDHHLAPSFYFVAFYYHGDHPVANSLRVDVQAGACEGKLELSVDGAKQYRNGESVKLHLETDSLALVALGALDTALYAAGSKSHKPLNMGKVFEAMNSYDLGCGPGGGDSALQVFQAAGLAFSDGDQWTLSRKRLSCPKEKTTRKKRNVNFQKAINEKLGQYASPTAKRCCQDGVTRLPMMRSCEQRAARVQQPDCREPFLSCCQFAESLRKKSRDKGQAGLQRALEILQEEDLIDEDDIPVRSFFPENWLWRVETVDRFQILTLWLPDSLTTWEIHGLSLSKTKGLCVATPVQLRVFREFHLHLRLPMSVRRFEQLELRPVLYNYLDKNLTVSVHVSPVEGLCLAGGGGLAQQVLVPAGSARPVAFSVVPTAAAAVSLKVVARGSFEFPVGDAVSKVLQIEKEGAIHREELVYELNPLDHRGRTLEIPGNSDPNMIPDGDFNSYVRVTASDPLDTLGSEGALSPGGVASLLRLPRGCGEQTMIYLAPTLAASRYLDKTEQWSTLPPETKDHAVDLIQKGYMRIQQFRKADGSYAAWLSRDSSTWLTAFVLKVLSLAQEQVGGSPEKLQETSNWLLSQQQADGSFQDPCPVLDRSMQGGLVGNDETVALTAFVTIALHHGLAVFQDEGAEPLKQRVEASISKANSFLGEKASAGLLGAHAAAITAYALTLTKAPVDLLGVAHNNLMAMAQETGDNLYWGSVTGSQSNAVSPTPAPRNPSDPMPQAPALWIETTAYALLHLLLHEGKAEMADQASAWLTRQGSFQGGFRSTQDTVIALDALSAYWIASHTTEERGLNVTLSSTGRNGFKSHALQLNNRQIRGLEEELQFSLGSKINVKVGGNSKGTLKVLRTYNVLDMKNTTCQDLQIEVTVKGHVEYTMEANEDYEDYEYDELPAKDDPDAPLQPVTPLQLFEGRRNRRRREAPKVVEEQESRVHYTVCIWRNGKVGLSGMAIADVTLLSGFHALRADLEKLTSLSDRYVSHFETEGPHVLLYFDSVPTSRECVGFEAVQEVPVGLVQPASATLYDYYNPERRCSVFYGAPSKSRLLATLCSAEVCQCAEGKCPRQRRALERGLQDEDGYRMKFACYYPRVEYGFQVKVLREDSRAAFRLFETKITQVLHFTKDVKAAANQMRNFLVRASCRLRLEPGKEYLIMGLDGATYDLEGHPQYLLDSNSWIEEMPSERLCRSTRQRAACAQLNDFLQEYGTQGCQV

Kd (C4b (Complement Tech) [1]): 21100 nM
KD vs. hCR1 KD (X (fold of hCR1 KD)) (C4b (Complement Tech) [2]): 0.94
Kd (C4b (Complement Tech) [3]): 12.4 nM
koff (C4b (Complement Tech) [3]): 0.000694 s⁻¹
kon (C4b (Complement Tech) [3]): 56000 M⁻¹ s⁻¹
Molecule: recombinant CR2CR1 #1 (CR2-CR1 fusion protein, CR2 SCR1-4 fused to CR1 SCR1-10), His-tagged

Kd (C4b (Complement Tech) [3]): 13.2 nM
koff (C4b (Complement Tech) [3]): 0.000586 s⁻¹
kon (C4b (Complement Tech) [3]): 44300 M⁻¹ s⁻¹
Kd (C4b (Complement Tech) [4]): 3010 nM
Molecule: Recombinant His-tagged human CR1 (R&D Systems) (from UniProt P17927 42-1971) (receptor)

KD vs. hCR1 KD (X (fold of hCR1 KD)) (C4b (Complement Tech) [2]): 0.8
Kd (C4b (Complement Tech) [3]): 10.5 nM
koff (C4b (Complement Tech) [3]): 0.000663 s⁻¹
kon (C4b (Complement Tech) [3]): 63300 M⁻¹ s⁻¹
Molecule: recombinant CR2CR1 #7 (CR2-CR1 fusion protein, CR2 SCR1-4 fused to CR1 SCR1-4, 7-11, 14-17), His-tagged

Kd (iC3b (Complement Tech) [5]): 6.51 nM
koff (iC3b (Complement Tech) [5]): 0.000965 s⁻¹
kon (iC3b (Complement Tech) [5]): 148000 M⁻¹ s⁻¹
Kd (iC3b (Complement Tech) [6]): 439 nM
B1: Recombinant His-tagged human CR2 (R&D Systems) (receptor, UniProt P20023 21-971, looked up)
chain: ISCGSPPPILNGRISYYSTPIAVGTVIRYSCSGTFRLIGEKSLLCITKDKVDGTWDKPAPKCEYFNKYSSCPEPIVPGGYKIRGSTPYRHGDSVTFACKTNFSMNGNKSVWCQANNMWGPTRLPTCVSVFPLECPALPMIHNGHHTSENVGSIAPGLSVTYSCESGYLLVGEKIINCLSSGKWSAVPPTCEEARCKSLGRFPNGKVKEPPILRVGVTANFFCDEGYRLQGPPSSRCVIAGQGVAWTKMPVCEEIFCPSPPPILNGRHIGNSLANVSYGSIVTYTCDPDPEEGVNFILIGESTLRCTVDSQKTGTWSGPAPRCELSTSAVQCPHPQILRGRMVSGQKDRYTYNDTVIFACMFGFTLKGSKQIRCNAQGTWEPSAPVCEKECQAPPNILNGQKEDRHMVRFDPGTSIKYSCNPGYVLVGEESIQCTSEGVWTPPVPQCKVAACEATGRQLLTKPQHQFVRPDVNSSCGEGYKLSGSVYQECQGTIPWFMEIRLCKEITCPPPPVIYNGAHTGSSLEDFPYGTTVTYTCNPGPERGVEFSLIGESTIRCTSNDQERGTWSGPAPLCKLSLLAVQCSHVHIANGYKISGKEAPYFYNDTVTFKCYSGFTLKGSSQIRCKADNTWDPEIPVCEKETCQHVRQSLQELPAGSRVELVNTSCQDGYQLTGHAYQMCQDAENGIWFKKIPLCKVIHCHPPPVIVNGKHTGMMAENFLYGNEVSYECDQGFYLLGEKKLQCRSDSKGHGSWSGPSPQCLRSPPVTRCPNPEVKHGYKLNKTHSAYSHNDIVYVDCNPGFIMNGSRVIRCHTDNTWVPGVPTCIKKAFIGCPPPPKTPNGNHTGGNIARFSPGMSILYSCDQGYLLVGEALLLCTHEGTWSQPAPHCKEVNCSSPADMDGIQKGLEPRKMYQYGAVVTLECEDGYMLEGSPQSQCQSDHQWNPPLAVCRSR
notes: Bought protein; also called rhCR2; hCR2; not shown: His tag

Source: US20260152543A1 (KRIYA THERAPEUTICS, published 2026)
